Values of other authors as cited in article PMC11260871.
Each block holds one substance with its values, some of them ahead of it.

Tests used:
laminin gamma1 LEb = laminin gamma1 LEb (UniProt P11047)
laminin alpha5 = laminin alpha5 (UniProt O15230)
laminin alpha2 = laminin alpha2 (UniProt P24043)
laminin alpha1 = laminin alpha1 (UniProt P25391)
laminin alpha4 = laminin alpha4 (UniProt Q16363)
[1] = target: laminin gamma LN domain LN (UniProt P11047)

Sequence of UniProt P25391 (P25391 18-3075): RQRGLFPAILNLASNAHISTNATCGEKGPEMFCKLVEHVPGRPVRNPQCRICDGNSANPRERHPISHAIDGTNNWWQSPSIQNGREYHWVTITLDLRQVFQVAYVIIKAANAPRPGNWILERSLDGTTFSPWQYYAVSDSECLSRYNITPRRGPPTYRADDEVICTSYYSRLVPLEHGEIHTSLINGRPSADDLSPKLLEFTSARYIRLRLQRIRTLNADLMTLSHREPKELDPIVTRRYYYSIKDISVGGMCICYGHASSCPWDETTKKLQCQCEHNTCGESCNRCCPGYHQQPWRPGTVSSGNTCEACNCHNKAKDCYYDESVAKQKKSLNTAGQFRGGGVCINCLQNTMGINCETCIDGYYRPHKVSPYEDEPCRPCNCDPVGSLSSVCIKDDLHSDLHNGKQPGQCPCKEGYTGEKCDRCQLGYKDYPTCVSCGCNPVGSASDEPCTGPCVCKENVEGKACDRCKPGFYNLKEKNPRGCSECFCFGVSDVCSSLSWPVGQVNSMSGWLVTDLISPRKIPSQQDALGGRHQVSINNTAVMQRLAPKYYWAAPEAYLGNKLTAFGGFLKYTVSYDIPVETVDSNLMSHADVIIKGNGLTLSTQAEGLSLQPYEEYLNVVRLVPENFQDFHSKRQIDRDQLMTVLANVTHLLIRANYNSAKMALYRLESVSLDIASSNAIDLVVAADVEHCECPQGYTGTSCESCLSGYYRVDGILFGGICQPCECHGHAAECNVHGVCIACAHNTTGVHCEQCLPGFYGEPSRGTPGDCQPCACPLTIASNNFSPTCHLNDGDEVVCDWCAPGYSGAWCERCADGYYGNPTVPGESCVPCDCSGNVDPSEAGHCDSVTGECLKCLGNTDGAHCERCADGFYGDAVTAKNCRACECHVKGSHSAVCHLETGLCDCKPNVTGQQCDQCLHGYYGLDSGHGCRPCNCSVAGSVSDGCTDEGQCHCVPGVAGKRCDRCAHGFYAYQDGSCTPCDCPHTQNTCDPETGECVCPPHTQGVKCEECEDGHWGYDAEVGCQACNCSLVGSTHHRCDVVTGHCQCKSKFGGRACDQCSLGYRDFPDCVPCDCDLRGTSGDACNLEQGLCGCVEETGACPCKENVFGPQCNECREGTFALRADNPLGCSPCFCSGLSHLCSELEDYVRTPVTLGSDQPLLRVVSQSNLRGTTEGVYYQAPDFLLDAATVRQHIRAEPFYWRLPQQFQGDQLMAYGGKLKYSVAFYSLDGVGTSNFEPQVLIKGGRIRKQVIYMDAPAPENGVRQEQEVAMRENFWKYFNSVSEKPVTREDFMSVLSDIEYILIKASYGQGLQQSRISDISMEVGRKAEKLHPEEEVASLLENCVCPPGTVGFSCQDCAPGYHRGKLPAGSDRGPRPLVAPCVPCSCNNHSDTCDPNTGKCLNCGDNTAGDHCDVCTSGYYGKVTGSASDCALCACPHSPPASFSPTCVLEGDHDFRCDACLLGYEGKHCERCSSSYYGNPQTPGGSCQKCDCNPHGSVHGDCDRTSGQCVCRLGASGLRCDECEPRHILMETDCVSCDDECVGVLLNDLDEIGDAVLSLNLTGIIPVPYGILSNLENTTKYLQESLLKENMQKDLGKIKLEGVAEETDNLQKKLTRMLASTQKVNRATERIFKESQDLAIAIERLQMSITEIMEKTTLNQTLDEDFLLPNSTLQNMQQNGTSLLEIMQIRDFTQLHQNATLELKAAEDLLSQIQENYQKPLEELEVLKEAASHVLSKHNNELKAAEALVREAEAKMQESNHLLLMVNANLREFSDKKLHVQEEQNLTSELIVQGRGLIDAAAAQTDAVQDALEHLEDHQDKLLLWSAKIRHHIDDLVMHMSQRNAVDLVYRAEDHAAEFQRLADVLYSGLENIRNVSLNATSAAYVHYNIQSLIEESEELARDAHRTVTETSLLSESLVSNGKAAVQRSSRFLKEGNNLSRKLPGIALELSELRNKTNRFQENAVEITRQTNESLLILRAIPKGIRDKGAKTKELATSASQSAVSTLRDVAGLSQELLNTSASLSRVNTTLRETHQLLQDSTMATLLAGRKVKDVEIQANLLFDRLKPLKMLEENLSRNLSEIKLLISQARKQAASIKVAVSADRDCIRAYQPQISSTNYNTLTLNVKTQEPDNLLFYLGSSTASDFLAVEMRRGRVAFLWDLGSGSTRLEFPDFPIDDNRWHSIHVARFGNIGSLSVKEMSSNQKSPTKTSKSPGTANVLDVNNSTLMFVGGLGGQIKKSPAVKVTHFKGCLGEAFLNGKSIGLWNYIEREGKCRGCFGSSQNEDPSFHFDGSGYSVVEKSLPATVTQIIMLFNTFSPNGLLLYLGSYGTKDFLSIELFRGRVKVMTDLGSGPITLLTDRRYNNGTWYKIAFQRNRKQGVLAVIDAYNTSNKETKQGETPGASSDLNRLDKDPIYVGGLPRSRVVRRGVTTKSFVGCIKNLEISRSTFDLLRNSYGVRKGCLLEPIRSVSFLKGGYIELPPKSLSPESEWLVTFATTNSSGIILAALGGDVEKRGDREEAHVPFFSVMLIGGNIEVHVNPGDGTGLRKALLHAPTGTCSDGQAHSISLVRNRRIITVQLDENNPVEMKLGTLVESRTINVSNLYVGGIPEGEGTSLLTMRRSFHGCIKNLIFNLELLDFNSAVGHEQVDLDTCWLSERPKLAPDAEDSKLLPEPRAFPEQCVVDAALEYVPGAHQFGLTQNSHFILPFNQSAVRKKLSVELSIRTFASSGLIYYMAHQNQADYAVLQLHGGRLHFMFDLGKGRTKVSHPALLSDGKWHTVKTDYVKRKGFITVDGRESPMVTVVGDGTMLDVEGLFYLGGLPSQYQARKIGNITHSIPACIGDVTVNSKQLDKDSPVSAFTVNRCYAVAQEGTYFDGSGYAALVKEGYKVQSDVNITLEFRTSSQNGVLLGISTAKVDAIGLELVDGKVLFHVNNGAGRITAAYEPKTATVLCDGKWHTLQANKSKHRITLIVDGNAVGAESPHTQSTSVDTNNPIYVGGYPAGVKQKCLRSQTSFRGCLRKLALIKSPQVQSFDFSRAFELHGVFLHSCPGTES
Sequence of UniProt Q16363 (Q16363 25-1823): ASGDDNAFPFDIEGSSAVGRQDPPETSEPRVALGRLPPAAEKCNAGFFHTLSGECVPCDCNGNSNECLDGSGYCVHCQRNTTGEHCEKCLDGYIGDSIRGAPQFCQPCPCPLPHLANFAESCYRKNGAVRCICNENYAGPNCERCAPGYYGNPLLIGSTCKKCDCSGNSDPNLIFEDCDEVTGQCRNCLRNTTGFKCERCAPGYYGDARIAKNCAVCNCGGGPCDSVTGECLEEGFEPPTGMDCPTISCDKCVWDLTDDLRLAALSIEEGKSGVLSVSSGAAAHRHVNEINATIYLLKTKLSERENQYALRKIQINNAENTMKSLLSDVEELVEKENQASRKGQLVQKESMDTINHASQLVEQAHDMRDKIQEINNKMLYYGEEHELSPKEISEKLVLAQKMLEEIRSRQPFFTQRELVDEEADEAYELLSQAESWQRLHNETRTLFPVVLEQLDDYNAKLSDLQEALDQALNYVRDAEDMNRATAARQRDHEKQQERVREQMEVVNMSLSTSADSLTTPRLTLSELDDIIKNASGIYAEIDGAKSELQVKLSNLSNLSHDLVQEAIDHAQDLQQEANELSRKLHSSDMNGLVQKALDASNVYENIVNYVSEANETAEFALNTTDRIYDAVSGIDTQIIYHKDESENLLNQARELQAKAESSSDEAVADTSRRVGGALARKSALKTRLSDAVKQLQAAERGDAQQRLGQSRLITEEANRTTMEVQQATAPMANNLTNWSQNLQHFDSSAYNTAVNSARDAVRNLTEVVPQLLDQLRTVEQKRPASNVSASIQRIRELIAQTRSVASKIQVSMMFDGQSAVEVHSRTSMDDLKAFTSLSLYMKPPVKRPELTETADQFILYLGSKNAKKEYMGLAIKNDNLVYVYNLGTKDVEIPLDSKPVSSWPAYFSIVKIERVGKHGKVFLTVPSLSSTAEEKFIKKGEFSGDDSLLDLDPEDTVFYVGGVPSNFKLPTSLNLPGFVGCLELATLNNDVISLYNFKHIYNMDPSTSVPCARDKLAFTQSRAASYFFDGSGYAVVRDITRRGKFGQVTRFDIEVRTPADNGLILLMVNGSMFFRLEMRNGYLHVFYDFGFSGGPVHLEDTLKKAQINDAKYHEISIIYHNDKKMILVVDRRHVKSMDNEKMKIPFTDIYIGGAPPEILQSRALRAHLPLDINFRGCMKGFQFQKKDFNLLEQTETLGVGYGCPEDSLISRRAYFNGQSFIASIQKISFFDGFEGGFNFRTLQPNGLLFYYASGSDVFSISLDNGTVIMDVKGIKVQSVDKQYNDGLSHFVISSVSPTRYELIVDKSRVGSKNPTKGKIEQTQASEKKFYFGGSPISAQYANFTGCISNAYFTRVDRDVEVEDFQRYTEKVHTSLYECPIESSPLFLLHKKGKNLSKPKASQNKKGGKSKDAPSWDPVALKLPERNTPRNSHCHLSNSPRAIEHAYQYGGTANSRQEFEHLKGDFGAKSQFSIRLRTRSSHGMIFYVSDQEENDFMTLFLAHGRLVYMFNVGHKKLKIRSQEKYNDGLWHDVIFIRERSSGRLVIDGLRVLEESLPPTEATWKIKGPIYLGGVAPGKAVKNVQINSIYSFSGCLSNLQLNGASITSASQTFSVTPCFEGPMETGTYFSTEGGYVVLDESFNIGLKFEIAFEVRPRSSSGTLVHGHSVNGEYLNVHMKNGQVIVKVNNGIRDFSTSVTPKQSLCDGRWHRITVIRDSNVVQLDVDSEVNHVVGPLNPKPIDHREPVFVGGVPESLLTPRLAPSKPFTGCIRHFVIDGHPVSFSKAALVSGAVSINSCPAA

Kd (laminin gamma1 LEb): < 1 nM
Substance: nidogen-1 G3 (from UniProt P14543)

Kd (laminin alpha5): 150 nM
Kd (laminin alpha2): 43 nM
Kd (laminin alpha1): 20 nM
Kd (laminin alpha4): > 1000 nM
Substance: alpha-dystroglycan (from UniProt Q14118)

Kd [1]: 18000 nM
Substance: laminin beta LN domain LN (from UniProt P07942)
